Reference: patent US20240197902A1
Read-outs that look alike come from different tables or passages of the source.

Legend:
Assay in all cases: cell-based or functional assay
BMP9 [1] = molecular target: T1, BMP9 (UniProt Q9UK05)
T1 sequence (looked up): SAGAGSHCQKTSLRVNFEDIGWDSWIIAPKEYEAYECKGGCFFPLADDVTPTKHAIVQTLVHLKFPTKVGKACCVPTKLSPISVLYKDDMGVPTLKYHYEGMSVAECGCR

BMP10 [2] = molecular target: T2, BMP10 (UniProt O95393)
T2 sequence (looked up): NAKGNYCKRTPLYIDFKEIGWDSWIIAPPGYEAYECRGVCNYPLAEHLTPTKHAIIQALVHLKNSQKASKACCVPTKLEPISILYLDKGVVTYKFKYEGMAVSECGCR

GDF8 [3] = molecular target: T3, GDF8 (UniProt O14793)
T3 sequence (looked up): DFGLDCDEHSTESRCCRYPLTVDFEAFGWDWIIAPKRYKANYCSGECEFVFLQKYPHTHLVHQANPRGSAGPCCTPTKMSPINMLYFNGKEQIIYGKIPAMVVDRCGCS

activin A [4] = molecular target: T4, activin A (UniProt P08476)
T4 sequence (looked up): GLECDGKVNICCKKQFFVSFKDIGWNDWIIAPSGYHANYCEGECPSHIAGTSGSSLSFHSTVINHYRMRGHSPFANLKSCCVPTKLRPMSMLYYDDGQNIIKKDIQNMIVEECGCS

GDF11 [5] = molecular target: T5, GDF11 (UniProt O95390)
T5 sequence (looked up): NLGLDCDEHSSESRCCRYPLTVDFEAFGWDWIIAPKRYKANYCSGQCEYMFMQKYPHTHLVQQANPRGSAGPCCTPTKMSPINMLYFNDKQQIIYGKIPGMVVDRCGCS

activin B [6] = molecular target: T6, activin B (UniProt P09529)
T6 sequence (looked up): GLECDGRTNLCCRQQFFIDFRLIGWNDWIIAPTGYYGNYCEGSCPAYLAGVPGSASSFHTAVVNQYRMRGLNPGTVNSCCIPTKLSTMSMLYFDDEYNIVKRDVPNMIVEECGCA

BMP9 [7] = molecular target: T1, BMP9; remark: listed apart in the source
activin A [8] = molecular target: T4, activin A; remark: listed apart in the source
GDF11 [9] = molecular target: T5, GDF11; remark: listed apart in the source
activin A [10] = molecular target: activin A (UniProt P08476); remark: listed apart in the source
BMP9 [11] = molecular target: BMP9 (UniProt Q9UK05); remark: listed apart in the source
GDF11 [12] = molecular target: GDF11 (UniProt O95390); remark: listed apart in the source
activin A [13] = molecular target: activin A (UniProt P08476); remark: listed apart in the source
GDF8 [14] = molecular target: GDF8 (UniProt O14793); remark: listed apart in the source
activin B [15] = molecular target: activin B (UniProt P09529); remark: listed apart in the source
BMP10 [16] = molecular target: BMP10 (UniProt O95393); remark: listed apart in the source
GDF11 [17] = molecular target: GDF11 (UniProt O95390); remark: listed apart in the source

ActRIIB(20-134)-G1Fc (Fc fusion), sequence (chain): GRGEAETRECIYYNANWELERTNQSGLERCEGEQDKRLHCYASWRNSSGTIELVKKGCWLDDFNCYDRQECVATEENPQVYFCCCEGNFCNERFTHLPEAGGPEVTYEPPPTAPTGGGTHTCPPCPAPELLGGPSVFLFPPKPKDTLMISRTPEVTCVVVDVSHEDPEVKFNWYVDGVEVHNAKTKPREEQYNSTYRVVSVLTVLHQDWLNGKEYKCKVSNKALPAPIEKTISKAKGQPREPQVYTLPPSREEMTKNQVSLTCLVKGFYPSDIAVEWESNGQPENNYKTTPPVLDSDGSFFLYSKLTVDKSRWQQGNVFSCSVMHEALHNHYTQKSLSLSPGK

IC50, A204 CAGA12 reporter gene assay (BMP9 [7]) [µg/mL] | IC50, A204 CAGA12 reporter gene assay (activin A [8]) [µg/mL] | IC50, A204 CAGA12 reporter gene assay (GDF11 [9]) [µg/mL] | Substance | other results
0.031 | 0.008 | 0.009 | ActRIIB(20-134)-G1Fc (Fc fusion) | IC50, A204 CAGA12 reporter gene assay (BMP9 [1]): 1.82 nM; IC50, A204 CAGA12 reporter gene assay (BMP10 [2]): 0.036 nM; IC50, A204 CAGA12 reporter gene assay (GDF8 [3]): 0.95 nM; IC50, A204 CAGA12 reporter gene assay (activin A [4]): 0.05 nM; IC50, A204 CAGA12 reporter gene assay (GDF11 [5]): 0.12 nM; IC50, A204 CAGA12 reporter gene assay (activin B [6]): 0.067 nM
 |  |  | ActRIIB(F82I)-G1Fc (Fc fusion) | IC50, A204 CAGA12 reporter gene assay (activin A [10]): 0.011 µg/mL; IC50, A204 CAGA12 reporter gene assay (BMP9 [11]): 0.277 µg/mL; IC50, A204 CAGA12 reporter gene assay (GDF11 [12]): 0.009 µg/mL
 |  |  | ActRIIB(F82K)-G1Fc (Fc fusion) | IC50, A204 CAGA12 reporter gene assay (activin A [10]): 0.01 µg/mL; IC50, A204 CAGA12 reporter gene assay (BMP9 [11]): 5 µg/mL; IC50, A204 CAGA12 reporter gene assay (GDF11 [12]): 0.015 µg/mL
 |  |  | ActRIIB(F82T)-G1Fc (Fc fusion) | IC50, A204 CAGA12 reporter gene assay (activin A [13]): 0.1 nM; IC50, A204 CAGA12 reporter gene assay (GDF8 [14]): 2.17 nM; IC50, A204 CAGA12 reporter gene assay (activin B [15]): 0.09 nM; IC50, A204 CAGA12 reporter gene assay (BMP10 [16]): 0.07 nM; IC50, A204 CAGA12 reporter gene assay (GDF11 [17]): 0.27 nM
 |  |  | ActRIIB(K55A)-G1Fc (Fc fusion) | IC50, A204 CAGA12 reporter gene assay (activin A [10]): 0.015 µg/mL; IC50, A204 CAGA12 reporter gene assay (BMP9 [11]): 0.122 µg/mL; IC50, A204 CAGA12 reporter gene assay (GDF11 [12]): 0.011 µg/mL
 |  |  | ActRIIB(K55E)-G1Fc (Fc fusion) | IC50, A204 CAGA12 reporter gene assay (activin A [10]): 0.019 µg/mL; IC50, A204 CAGA12 reporter gene assay (BMP9 [11]): 0.29 µg/mL; IC50, A204 CAGA12 reporter gene assay (GDF11 [12]): 0.014 µg/mL
0.409 | 0.128 | 0.099 | variant ActRIIB-Fc polypeptide A24N (Fc fusion) | 
0.721 | 0.132 | 0.18 | variant ActRIIB-Fc polypeptide E50K (Fc fusion) | 
3 | 0.756 | 0.638 | variant ActRIIB-Fc polypeptide E50P (Fc fusion) | 
0.359 | 0.198 | 0.071 | variant ActRIIB-Fc polypeptide E52A (Fc fusion) | 
10 | 0.762 | 0.296 | variant ActRIIB-Fc polypeptide E52K (Fc fusion) | 
 |  | 0.276 | variant ActRIIB-Fc polypeptide F82W (Fc fusion) | 
40 |  | 0.389 | variant ActRIIB-Fc polypeptide F82W/N83A (Fc fusion) | 
5.5 | 0.396 | 0.365 | variant ActRIIB-Fc polypeptide K55D (Fc fusion) | 
0.777 | 0.206 | 0.318 | variant ActRIIB-Fc polypeptide K55R (Fc fusion) | 
0.165 |  | 0.045 | variant ActRIIB-Fc polypeptide K74R (Fc fusion) | 
 |  | 0.477 | variant ActRIIB-Fc polypeptide L79K (Fc fusion) | 
 |  | 0.234 | variant ActRIIB-Fc polypeptide L79R (Fc fusion) | 
1.21 |  | 0.591 | variant ActRIIB-Fc polypeptide R40A (Fc fusion) | 
 |  | 0.414 | variant ActRIIB-Fc polypeptide Y60K (Fc fusion) | 
 |  | 0.544 | variant ActRIIB-Fc polypeptide Y60P (Fc fusion) | 
